Values quoted from earlier work, collected in PMC5776729.

Columns and labels:
[1] = molecular target: laminin 111 (Homo sapiens) (UniProt P25391)
[2] = molecular target: laminin 111 (Mus musculus) (UniProt P19137)
[3] = molecular target: laminin 511 (Homo sapiens) (UniProt O15230)
[4] = molecular target: laminin 411 (Homo sapiens) (UniProt Q16363)
UniProt Q16363, sequence (Q16363 25-1823, chain 1 of 3): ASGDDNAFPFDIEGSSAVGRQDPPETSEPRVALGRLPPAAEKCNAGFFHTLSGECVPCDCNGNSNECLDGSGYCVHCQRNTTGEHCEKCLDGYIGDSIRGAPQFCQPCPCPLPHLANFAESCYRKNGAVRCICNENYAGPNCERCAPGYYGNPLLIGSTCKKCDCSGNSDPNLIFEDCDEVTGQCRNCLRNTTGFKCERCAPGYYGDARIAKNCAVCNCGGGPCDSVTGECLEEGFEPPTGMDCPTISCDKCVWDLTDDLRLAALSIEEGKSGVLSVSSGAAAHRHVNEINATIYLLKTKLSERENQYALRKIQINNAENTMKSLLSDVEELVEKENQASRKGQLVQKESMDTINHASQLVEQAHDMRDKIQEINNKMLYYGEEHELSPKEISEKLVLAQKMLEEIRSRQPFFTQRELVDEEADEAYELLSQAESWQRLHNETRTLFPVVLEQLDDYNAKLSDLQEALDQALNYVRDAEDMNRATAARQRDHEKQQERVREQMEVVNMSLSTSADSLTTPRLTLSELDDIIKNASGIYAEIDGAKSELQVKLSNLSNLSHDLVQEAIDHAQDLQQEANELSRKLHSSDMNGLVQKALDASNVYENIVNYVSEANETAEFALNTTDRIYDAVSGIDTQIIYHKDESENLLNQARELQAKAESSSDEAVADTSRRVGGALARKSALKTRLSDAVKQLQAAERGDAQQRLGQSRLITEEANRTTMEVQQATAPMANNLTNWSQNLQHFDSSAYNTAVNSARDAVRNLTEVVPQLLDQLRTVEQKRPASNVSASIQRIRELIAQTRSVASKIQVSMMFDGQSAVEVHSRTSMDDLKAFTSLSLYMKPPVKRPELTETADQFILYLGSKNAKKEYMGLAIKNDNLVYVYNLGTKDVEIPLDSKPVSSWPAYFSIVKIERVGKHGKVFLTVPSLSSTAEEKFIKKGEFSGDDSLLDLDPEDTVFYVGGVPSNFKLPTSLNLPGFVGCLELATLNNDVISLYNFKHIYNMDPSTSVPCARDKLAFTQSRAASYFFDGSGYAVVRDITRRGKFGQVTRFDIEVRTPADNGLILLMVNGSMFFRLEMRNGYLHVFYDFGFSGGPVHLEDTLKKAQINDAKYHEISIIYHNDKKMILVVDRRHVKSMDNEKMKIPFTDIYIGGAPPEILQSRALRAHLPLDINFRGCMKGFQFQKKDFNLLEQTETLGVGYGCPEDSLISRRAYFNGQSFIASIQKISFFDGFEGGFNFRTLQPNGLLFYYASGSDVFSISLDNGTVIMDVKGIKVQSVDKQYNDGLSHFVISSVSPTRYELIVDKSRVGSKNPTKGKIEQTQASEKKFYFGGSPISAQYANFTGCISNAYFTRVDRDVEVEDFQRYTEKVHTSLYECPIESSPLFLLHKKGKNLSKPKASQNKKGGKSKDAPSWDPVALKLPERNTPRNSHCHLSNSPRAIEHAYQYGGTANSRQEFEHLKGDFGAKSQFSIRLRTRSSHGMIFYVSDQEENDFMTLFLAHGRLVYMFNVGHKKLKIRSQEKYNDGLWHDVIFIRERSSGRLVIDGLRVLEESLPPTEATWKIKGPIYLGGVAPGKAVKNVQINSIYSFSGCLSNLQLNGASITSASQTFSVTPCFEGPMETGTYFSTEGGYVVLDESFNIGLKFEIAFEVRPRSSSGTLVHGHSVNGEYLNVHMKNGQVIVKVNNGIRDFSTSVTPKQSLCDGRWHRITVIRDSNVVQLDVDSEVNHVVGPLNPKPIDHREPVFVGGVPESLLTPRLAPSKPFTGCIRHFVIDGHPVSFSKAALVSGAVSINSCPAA
UniProt Q16363, sequence (P07942 22-1786, chain 2 of 3, further chain): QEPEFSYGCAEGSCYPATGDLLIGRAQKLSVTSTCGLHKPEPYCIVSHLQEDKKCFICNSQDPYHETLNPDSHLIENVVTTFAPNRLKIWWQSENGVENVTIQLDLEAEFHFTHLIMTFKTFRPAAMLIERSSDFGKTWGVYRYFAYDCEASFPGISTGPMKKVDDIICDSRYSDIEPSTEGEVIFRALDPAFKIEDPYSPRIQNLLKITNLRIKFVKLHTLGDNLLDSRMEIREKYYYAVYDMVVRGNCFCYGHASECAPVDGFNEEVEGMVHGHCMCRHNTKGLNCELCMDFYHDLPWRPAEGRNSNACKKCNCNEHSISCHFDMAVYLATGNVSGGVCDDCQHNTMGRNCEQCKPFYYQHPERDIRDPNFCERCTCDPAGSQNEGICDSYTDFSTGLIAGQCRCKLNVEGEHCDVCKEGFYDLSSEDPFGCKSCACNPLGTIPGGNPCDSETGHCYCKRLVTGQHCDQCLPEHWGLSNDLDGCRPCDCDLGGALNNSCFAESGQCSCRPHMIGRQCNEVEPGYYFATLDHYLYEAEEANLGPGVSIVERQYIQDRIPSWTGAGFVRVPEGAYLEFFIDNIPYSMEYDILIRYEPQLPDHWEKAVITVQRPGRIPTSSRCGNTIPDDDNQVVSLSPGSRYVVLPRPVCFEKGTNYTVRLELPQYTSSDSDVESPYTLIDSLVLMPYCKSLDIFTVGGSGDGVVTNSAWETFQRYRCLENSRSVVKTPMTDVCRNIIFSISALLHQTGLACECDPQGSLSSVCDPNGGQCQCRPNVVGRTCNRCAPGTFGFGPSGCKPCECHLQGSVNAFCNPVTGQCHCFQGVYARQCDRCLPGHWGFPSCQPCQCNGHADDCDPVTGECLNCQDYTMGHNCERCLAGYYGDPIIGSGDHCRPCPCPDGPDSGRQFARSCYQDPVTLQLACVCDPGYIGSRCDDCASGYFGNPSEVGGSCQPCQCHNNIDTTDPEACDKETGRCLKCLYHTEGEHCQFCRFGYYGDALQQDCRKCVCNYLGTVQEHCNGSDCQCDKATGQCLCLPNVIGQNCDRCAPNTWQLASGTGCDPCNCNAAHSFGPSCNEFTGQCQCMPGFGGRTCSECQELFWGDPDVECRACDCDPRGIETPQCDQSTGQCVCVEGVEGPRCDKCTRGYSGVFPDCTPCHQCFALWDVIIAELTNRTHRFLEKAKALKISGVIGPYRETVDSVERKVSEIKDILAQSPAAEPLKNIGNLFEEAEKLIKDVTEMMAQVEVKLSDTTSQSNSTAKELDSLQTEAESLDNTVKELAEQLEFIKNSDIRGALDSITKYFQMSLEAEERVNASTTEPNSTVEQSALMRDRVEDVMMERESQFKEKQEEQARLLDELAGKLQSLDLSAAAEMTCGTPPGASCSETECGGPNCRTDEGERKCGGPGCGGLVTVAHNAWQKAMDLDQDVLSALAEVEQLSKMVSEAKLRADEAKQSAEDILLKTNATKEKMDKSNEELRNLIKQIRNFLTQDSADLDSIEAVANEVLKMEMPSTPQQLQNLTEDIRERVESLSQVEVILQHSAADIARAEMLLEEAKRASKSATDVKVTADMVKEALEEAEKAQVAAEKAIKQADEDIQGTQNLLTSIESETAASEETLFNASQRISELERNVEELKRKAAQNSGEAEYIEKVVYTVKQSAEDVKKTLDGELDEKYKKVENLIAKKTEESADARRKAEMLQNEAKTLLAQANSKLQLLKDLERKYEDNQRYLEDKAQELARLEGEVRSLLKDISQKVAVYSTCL
UniProt Q16363, sequence (P11047 34-1609, chain 3 of 3, further chain): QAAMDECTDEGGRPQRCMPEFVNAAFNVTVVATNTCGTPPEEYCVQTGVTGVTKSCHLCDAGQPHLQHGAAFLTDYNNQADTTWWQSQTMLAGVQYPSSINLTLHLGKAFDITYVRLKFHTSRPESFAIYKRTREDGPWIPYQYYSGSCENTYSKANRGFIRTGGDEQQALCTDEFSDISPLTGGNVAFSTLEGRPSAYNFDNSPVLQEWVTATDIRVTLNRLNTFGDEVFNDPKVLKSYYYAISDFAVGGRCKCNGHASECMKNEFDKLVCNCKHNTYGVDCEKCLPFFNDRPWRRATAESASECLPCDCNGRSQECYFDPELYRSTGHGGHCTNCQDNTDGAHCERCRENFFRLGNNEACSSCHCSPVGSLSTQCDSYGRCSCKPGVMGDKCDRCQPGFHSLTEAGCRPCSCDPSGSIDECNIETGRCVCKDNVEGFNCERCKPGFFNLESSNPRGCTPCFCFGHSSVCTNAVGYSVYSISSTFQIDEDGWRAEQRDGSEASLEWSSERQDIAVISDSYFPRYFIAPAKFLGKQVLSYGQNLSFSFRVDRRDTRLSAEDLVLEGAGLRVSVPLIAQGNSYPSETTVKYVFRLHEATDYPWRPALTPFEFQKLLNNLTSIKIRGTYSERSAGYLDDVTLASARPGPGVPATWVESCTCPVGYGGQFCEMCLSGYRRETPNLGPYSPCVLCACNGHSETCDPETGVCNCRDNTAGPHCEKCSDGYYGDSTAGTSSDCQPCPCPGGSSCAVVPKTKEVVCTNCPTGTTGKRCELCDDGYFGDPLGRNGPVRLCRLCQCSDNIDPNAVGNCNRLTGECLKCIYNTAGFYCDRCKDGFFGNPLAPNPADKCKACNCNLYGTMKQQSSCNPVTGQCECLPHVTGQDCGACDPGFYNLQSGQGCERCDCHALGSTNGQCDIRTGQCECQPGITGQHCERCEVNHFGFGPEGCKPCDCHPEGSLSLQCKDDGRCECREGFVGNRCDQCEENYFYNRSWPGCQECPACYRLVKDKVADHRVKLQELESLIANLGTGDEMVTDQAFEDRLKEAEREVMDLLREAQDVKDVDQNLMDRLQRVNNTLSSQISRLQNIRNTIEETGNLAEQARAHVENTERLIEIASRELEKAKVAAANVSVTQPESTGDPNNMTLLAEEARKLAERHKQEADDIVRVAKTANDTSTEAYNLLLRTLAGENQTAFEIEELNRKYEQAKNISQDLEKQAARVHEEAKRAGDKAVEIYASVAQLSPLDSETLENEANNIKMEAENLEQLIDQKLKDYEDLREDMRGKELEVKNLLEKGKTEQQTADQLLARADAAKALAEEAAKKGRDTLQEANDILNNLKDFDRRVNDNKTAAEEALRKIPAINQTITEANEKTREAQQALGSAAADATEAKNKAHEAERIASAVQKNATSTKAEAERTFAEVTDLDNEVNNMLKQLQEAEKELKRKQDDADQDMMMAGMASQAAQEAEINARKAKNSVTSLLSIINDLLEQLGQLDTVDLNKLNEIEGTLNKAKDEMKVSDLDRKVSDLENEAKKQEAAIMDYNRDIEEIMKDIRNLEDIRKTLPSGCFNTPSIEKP

- Kd [1]: 11.1 nM
- Kd [2]: 18.8 nM
- Kd [3]: 8.3 nM
- Kd [4]: 9.2 nM
Substance: Factor XI (from UniProt P03951)
